# Laboratory results published in paper PMC5444859.
# Experiments:
# [1] = target: CASV L-Cterm (California Academy of Sciences virus …, UniProt J7HBG8 1721-2046); test: EMSA; 5 mM MgCl2; 5 pmol protein, 0.4 pmol RNA; details: protein: recombinant; tags: N-terminal His-tag (pOPINF), removed by 3C protease; chain copies: 2; label: 32P in cap (alpha-32P-GTP); single strand
# [2] = target: CASV L-Cterm domain 2 (California Academy of Sciences virus …, UniProt J7HBG8 1794-1894); test: EMSA; 5 mM MgCl2; 5 pmol protein, 0.4 pmol RNA; details: protein: recombinant; tags: N-terminal His-tag, removed by 3C protease; chain copies: 2; label: 32P in cap (alpha-32P-GTP); single strand
binder,measurement,setting,value
"AAAAAAAAAAAAAAAAAAAAAAAAAAAAAAAAAAAAAAAA (ssRNA, 5' cap added with capping enzymes (Cellscript)) [capped polyA 40mer RNA]",binding result,[1],no binding
same,binding result,[2],no binding
